This passage reports Kd, koff and kon results from patent publication US20170248602A1.

Test [1] deals with T1, SNAP-25 peptide comprising amino acids 134-197 of SEQ ID NO:5 (human). The test can be described thus: SPR (BIAcore 3000), peptide on CM5 chip, 1:1 fit.
In test [2] the target is T1, SNAP-25 peptide comprising amino acids ….

Where two headings read alike, the source gives them in different places.

B1: α-SNAP-25 mouse monoclonal antibody 1D3B8 (antibody, V domains shown)
VH: QVKLQESGAELVKPGASVKISCKASGYIFTDHALHWVRQKPEQGLEWIGYIFPGNGNIEYNEKFKGKATLTADKSSSTAYMQLNSLTSGDSAMYFCKKMDYWGQGTTVTVSS
VL: DVLMTQTPLSLPVSLGDQASISCRSSQSIVHSNGNTYLEWYLQKPGQSPKLLIYKVSNRFSGVPDRFSGSGSGTDFTLKISRVEAEDLGVYYCFQGSHVPPTFGAGTKLELKR
As a reminder, the Kd is the equilibrium constant for the complex coming apart. Read a low Kd as a tighter complex. What is called koff is the first-order rate constant of dissociation. Read a low koff as slow dissociation. Broadly, the kon is the rate constant with which the complex forms. Higher therefore signals fast association. Consider B1, for which, in test [1], the Kd was 0.05 nM, the koff amounted to 5.78e-05 s⁻¹ and the kon was found to be 1.06e+06 M⁻¹ s⁻¹.

B2: α-SNAP-25 mouse monoclonal antibody 2C9B10 (antibody, V domains shown)
VH: QVKLQESGAELVKPGASVKISCKASGYTFTDHSIHWVKQKPGQGLEWIGYLFPGNGNFEYNEKFKGKATLTADKSSSTAYMHLNSLTSEDSAVYFCKKMDYWGQGTTVTVSS
VL: DIQMTQSPASLSASVGETVTITCRTTENIYSYFVWSQQRQGKSPQLRVYNAKSLAEGVPSSFNVSVSGTQFSLKINSLQPEDFGTYHCQHHYGTPYTFGGGTRLEIRR
Regarding B2, in test [1], the Kd was found to be 27.1 nM, the koff came to 0.000311 s⁻¹ and the kon came to 11500 M⁻¹ s⁻¹.

B3: α-SNAP-25 mouse monoclonal antibody 2E2A6 (antibody, V domains shown)
VH: QVQLQQSDAELVKPGASVKISCRASGYTFTDHSIHWVKQQPGQGLEWIGYIFPGNGNIEYNDKFKGKATLTADKSSGTAYMQLNSLTSEDSAVYFCKRMGYWGQGTSVTVSS
VL: DVLMTQTPLTLSVTIGQPASISCKSSQSLLYTNGKTYLTWLFQRPGQSPKRLIYLVSELDSGVPDRFSGSGSGTDFTLEITRVEAEDLGVYYCLQSAHFPFTFGSGTKLEIKR
In test [2], B3 gave a Kd of 0.405 nM, a koff of 6.74e-05 s⁻¹ and a kon of 166000 M⁻¹ s⁻¹. In test [1], the Kd came to 0.09 nM, the koff amounted to 0.000153 s⁻¹ and the kon is 1.7e+06 M⁻¹ s⁻¹.

B4: α-SNAP-25 mouse monoclonal antibody 3C1A5 (antibody, V domains shown)
VH: QVKLQESGAELVKPGASVKISCKASGYTFTDHSIHWVKQKPGQGLEWIGYLFPGNGNFEYNEKFKGKATLTADKSSSTVYMYLNSLTSEDSAVYFCKRMGYWGQGTTVTVSS
VL: DVVMTQTPLTLSVTIGQPASISCKSSQSLLNTNGKTYLTWLIQRPGQSPQRLIYLVSKLDSGVPDRFSGSGSGTDFTLKISRVEAEDLGVYYCLQSSHFPFTFGSGTKLEIKR
In test [1], B4 had a Kd of 1.33 nM, a koff of 0.000288 s⁻¹ and a kon of 217000 M⁻¹ s⁻¹.
